T1: human Trop-2 on the surface of cells (CHO/Trop-2 cells; BxPC-3 cells; NCI-N87 cells) (human, UniProt P09758 27-323)
T1 construct: whole, on cells; One molecule for all cell lines; the cell line is named under assay or readout; also called Trop-2 on the surface of CHO cells; recombinant human Trop-2 protein on the surface of CHO cells
T1 sequence (looked up): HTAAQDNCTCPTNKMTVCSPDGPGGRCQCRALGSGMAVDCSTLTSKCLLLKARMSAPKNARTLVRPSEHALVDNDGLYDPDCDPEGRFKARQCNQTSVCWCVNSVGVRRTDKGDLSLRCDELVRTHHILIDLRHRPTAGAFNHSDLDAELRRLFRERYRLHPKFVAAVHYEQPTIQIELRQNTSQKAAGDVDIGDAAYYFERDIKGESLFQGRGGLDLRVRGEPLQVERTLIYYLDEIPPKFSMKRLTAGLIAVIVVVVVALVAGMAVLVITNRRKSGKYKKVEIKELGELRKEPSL

T2: recombinant human Trop-2-his protein (ACCESSION NO.: NP_002344.2, AA 1-274) (human, UniProt P09758 27-274)
T2 construct: range 27-274; also called recombinant human Trop-2 protein; recombinant human Trop-2 extracellular domain; not shown: his tag
T2 sequence (looked up): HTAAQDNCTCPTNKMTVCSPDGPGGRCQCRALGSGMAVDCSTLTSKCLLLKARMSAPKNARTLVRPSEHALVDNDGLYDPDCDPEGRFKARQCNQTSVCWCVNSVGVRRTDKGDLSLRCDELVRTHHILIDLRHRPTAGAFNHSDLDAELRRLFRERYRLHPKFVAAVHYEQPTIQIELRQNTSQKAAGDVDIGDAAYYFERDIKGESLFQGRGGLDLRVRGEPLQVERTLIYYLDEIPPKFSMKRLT

B1: chimeric antibody ch3-11 (antibody, human IgG1, V domains shown)
VH: QVQLQQPGAELVKPGSSVKLSCKASGYTFTSYWMYWVKQRPGQGLEWIGEINPSNGRTNYNEKFKSKATLTVDKSSSTAYMQFSSLTSEDSAVYYCTREGHNYDGSLGAMDHWGQGTSVTVSS
VL: DVVVTQTPLSLPVSFGDQVSISCRSSQSLTNSYGNTFLSWYLHKPGQSPQLLLYGISNRFSGVPDRFSGSGSGTDFTLKINTIKPEDLGMYYCFQSTHQPYTFGGGTKLEIK
B2: chimeric antibody ch23-12 (antibody, human IgG1, V domains shown)
VH: QVQLQQPGAELVKPGASVKLSCKADGYIFTSYWMHWVKQRPGQGLEWIGEITPSDNYTSYNQKFKGKATLTVDKSSSTAYMQLSSLTSEDSAVYYCTRGHGNYVSFDYWGQGTTLTVSS
VL: DIQMTQITSSLSASLGDRVTITCRASQDISNYLNWYQQKPDGTVKLLIYYTSRLHSGVPSRFSGSGSGTDYSLTISNLEQEDIATYFCQQGYTLPPYTFGGGTKLEIK
B3: chimeric antibody ch11-4 (antibody, human IgG1, V domains shown)
VH: QVQLQQPGAELVRPGASVNLSCKASGYTFTSYWINWVKQRPGQGLEWIGNIYPSNSYTNYNQKFKDTATLTVDKSSSTAYMQLSSPTSEDSAVYFCSSYRSDGFAYWGQGTLVTVSA
VL: DILLTQSPAILSVSPGEKVSFSCRASQNIGTSIHWYQQRTNGSPRLLIEFASESISGIPSRFSGSGSGTDFTLTINSVESEDIADYYCQQSNSWPFTFGGGTKLEIK
B4: ch11-4-SN38 (antibody, V domains shown)
VH: B3 VH
VL: B3 VL
modifications: CL2A-SN-38 conjugated to the DTT-reduced antibody; 7.5 SN38 per antibody; sites not stated
notes: also called ch11-4 labeled with SN38
B5: chimeric antibody ch4-3 (antibody, human IgG1, V domains shown)
VH: QVQLQQSGPELVKPGASVKMSCKASGFTFTDYVIGWVKQRTGQGLEWIGEIYLGSGTIYYTEKFKGKATLTADTSSNTAYMQLSSLTSEDSAVYFCARGSIFPFDYWGQGTTLTVSS
VL: QIVLTQSPAIMSASPGEKVTMTCSASSSVSYMYWYQQKPGSSPRLLIYDTSTLASGVPVRFSGSGSGTSYSLTISRMEAEDAATYYCQQWSSYPYTFGGGTKLEIK

Assays:
[1] = biological target: T1, human Trop-2 on the surface of cells …; assay: FACS, CHO/Trop-2 cells
Protocol: Suspensions of CHO cells recombinantly expressing human Trop-2 (CHO/Trop-2 cells) were incubated with chimeric antibodies ch3-11, ch4-3, ch17-1, ch11-4, and ch23-12 (dilutions at concentrations of 30 μg/ml and 10 μg/ml, and serial dilutions of 9 concentrations obtained through 3-fold serially diluting a solution with an initial concentration of 5 μg/ml, 11 concentrations in total) for 30 min at 37° C. Controls as follows were set: (1) Positive Control (PC): control antibody Sacituzumab; (2) Negative Control (NC): IgG1 isotype control antibody NC-IgG1. The cells were washed 3 times with PBS, and 1:100 dilution of goat anti-human IgG-FITC (Cat.: F9512, Sigma) was added into the cell which then were incubated for 30 min. Then the cells were washed 3 times with PBS again, and the Mean Fluorescence Intensity (MFI) of the cells was measured by a flow cytometer (model B49007AD, SNAW31211, BECKMAN COULTER) to detect binding ability of the chimeric antibodies to human Trop-2 on the surface of CHO cells.

[2] = biological target: T1, human Trop-2 on the surface of cells …; assay: cell-based or functional assay
[3] = biological target: T2, recombinant human Trop-2-his protein …; assay: ELISA, coated Trop-2-his 0.2 µg/ml
Protocol: Plates were coated with recombinant human Trop-2-his protein (ACCESSION NO.: NP_002344.2, AA 1-274) at a concentration of 0.2 μg/ml overnight at 4° C. and then blocked with 5% BSA for 60 min in a constant temperature incubator at 37° C. Chimeric antibodies ch3-11, ch4-3, ch17-1, ch11-4, and ch23-12 and control antibody Sacituzumab (serial dilutions of 8 concentrations in total obtained through 3-fold serially diluting a solution with an initial concentration of 2 μg/ml) were added into the plates which were then incubated in a constant temperature incubator at 37° C. for 60 min. The plates were washed with PBST 4 times, and 1:5000 dilution of HRP-anti-human Fc (Cat.: 109-035-098, Jackson ImmunoResearch) was added into the plates for reaction for 45 min. TMB (Cat.: ME142, GalaxyBio, Beijing) substrate was added for color development for 15 min, and then 2M HCl was added to stop reaction. Absorbances at 450 nm and at 630 nm (as reference wavelength) were read, and A450 nm-630 nm values of the wells in the plates were recorded.

[4] = biological target: T2, recombinant human Trop-2-his protein …; assay: BLI, antibody on AHC sensor, Trop-2-his 60 nM
Protocol: (§1) 5-6 days after cell transfection, culture supernatants were purified through ProA affinity chromatography column to obtain different humanized antibodies. Affinities of the obtained antibodies were determined by an assay including capturing Fc fragments of the antibodies with anti-human IgG Fc capture (AHC) biosensors using Octet QKe system instrument from Fortebio. For the assay, each of the humanized antibodies and control antibody Sacituzumab was diluted to 4 μg/ml in PBS, and was allowed to flow through the surface of an AHC biosensor (Cat.: 18-0015, PALL) for 120 s. Recombinant human Trop-2-his protein (ACCESSION NO.: NP_002344.2, AA 1-274) was used as a mobile phase, and its concentration was 60 nM. The binding time was 100 s and the dissociation time was 300 s. When the assay was finished, data from which the response values of blank control had been deducted were fitted to a 1:1 Langmuir binding model using software, and then kinetic constants for antigen-antibody binding were calculated.
Affinities of the antibodies obtained from the combinations of mutants of murine antibody 23-12, chimeric antibody ch23-12 and control antibody Sacituzumab to recombinant human Trop-2-his protein were determined by ForteBijo (Table 5).

[5] = biological target: T1, human Trop-2 on the surface of cells …; assay: cell-based or functional assay; remark: listed apart in the source
[6] = biological target: T2, recombinant human Trop-2-his protein …; assay: BLI, antibody on AHC sensor, Trop-2-his 60 nM; remark: listed apart in the source
Protocol: as §1
Affinities of the antibodies obtained from the combinations of mutants of murine antibody 11-4, chimeric antibody ch11-4 and control antibody Sacituzumab to recombinant human Trop-2-his protein were determined by ForteBio (Table 11).

[7] = biological target: T2, recombinant human Trop-2-his protein …; assay: BLI, naked antibody on AHC sensor, Trop-2-his 60 nM, 300 s binding
Protocol: (§2) Affinities of the antibodies were determined by an assay including capturing Fc fragments of the antibodies with anti-human IgG Fc capture (AHC) biosensors using Octet QKe system instrument from Fortebio.
(§3) For the assay, SN38-labeled antibodies prepared as described above: h23-12-SN38, ch4-3-SN38, ch11-4-SN38, and positive control antibody Sacituzumab-SN38, as well as naked antibodies h23-12, ch4-3, ch11-4, and positive control antibody Sacituzumab were diluted to 4 μg/ml with PBS and allowed to flow through the surface of an AHC biosensor (Cat.: 18-0015, PALL) for 120 s. Recombinant human Trop-2-his protein (ACCESSION NO.: NP_002344.2, AA 1-274) was used as a mobile phase, and its concentration was 60 nM. The binding time was 300 s and the dissociation time was 300 s. When the assay was finished, data from which the response value of blank control had been deducted were fitted to a 1:1 Langmuir binding model using software, and then kinetic constants for antigen-antibody binding were calculated.

[8] = biological target: T1, human Trop-2 on the surface of cells …; assay: cell-based or functional assay; remark: listed apart in the source
[9] = biological target: T2, recombinant human Trop-2-his protein …; assay: BLI, SN38-labeled antibody on AHC sensor, Trop-2-his 60 nM, 300 s binding
Protocol: as §2, §3

[10] = biological target: T1, human Trop-2 on the surface of cells …; assay: cell-based or functional assay; remark: listed apart in the source
[11] = biological target: T2, recombinant human Trop-2-his protein …; assay: BLI, antibody on AHC sensor, Trop-2-his 60 nM; remark: listed apart in the source
Protocol: as §1
Affinities of the antibodies obtained from the combinations of mutants of murine antibody 23-12, chimeric antibody ch4-3 and control antibody Sacituzumab to recombinant human Trop-2-his protein were determined by ForteBio (Table 8).

Row | Binder | EC50 [1] [nM] | Internalization percentage (%), 1 h, BxPC-3 cells, FACS [2] [%] | Internalization percentage (%), 3 h, BxPC-3 cells, FACS [2] [%] | Internalization percentage (%), 5 h, BxPC-3 cells, FACS [2] [%] | EC50 [3] [nM] | Kd [4] [nM] | Internalization percentage, 1 h, BXPC-3 cells, FACS [5] [%] | Kd [6] [nM] | Kd [7] [nM] | IC50 (µg/ml), inhibitory activity of anti-Trop-2 ADCs on cell growth, BxPC-3 cells [8] [µg/mL] | Kd [9] [nM] | Internalization percentage, 1 h, NCI-N87 cells, FACS [10] [%] | Kd [11] [nM]
1 | B1 | 0.993 | 1.12 | -5.13 | -8.48 | 0.315 | – | – | – | – | – | – | – | –
2 | B2 | 2.75 | 16.2 | 21.1 | 27.1 | 0.458 | 0.715 | – | – | – | – | – | – | –
3 | B3 | 1.15 | -2 | -7.4 | -9.38 | 0.237 | – | 15.5 | 0.264 | 0.176 | – | – | – | –
4 | B4 | – | – | – | – | – | – | 51.1 | – | – | 2.88 | 0.0734 | – | –
5 | B5 | 3.33 | 17.1 | 23.1 | 28.1 | 0.32 | – | 30.7 | – | 0.323 | – | – | 50.2 | 0.3

Source: patent publication US20240092930A1 (MABWELL SHANGHAI BIOSCIENCE, published 2024)
